Values quoted from earlier work, collected in patent publication US20090145201A1, “METHODS AND APPARATUSES FOR REDUCING EFFECTS OF MOLECULE ADSORPTION WITHIN MICROFLUIDIC CHANNELS” (EKSIGENT TECHNOLOGIES, LLC, priority 2005, published 2009).

Settings: source: Cantor and Schimmel 1980, Biophysical Chemistry Part II

Row | Compound | Diffusion Coefficient
1 | [Cl-].[Na+] [NaCl, reference compound] | ~1.5e−5 cm^2 · s^−1
2 | OC[C@H]1O[C@@](CO)(O[C@H]2O[C@H](CO)[C@@H](O)[C@H](O)[C@H]2O)[C@@H](O)[C@@H]1O [sucrose, reference compound] | 4.59e−6 cm^2 · s^−1
3 | NCC(=O)O [glycine, reference compound] | 9.33e−6 cm^2 · s^−1
4 | Tropomyosin | 2.2e−7 cm^2 · s^−1
5 | Bovine serum albumin | 6.01e−7 cm^2 · s^−1
6 | Myosin | 1.10e−7 cm^2 · s^−1
7 | lysozyme | 1.04e−6 cm^2 · s^−1
8 | Fibrinogen | 1.98e−7 cm^2 · s^−1
